Values quoted from earlier work as cited in paper PMC4191058.

Molecular target: NS1 (Influenza A virus) (UniProt Q8QPI8)

In the case of NS1 (from UniProt Q8QPI8), the Kd is given as 90 µM.
